For series [1], the system named is v2_PPR1 (Artificial Sequence). Nature of the series: ELONA.
The test system of series [2] is v2_PPR5 (Artificial Sequence). The series is described as follows: ELONA.
In series [3] the test system is v2_PPR2 (Artificial Sequence). The series is described as follows: ELONA.
The subject of series [4] is v2_PPR3 (Artificial Sequence). Nature of the series: ELONA.
The next series concerns the target T1, NL_v2_PPR9 (Artificial Sequence).
T1 chain: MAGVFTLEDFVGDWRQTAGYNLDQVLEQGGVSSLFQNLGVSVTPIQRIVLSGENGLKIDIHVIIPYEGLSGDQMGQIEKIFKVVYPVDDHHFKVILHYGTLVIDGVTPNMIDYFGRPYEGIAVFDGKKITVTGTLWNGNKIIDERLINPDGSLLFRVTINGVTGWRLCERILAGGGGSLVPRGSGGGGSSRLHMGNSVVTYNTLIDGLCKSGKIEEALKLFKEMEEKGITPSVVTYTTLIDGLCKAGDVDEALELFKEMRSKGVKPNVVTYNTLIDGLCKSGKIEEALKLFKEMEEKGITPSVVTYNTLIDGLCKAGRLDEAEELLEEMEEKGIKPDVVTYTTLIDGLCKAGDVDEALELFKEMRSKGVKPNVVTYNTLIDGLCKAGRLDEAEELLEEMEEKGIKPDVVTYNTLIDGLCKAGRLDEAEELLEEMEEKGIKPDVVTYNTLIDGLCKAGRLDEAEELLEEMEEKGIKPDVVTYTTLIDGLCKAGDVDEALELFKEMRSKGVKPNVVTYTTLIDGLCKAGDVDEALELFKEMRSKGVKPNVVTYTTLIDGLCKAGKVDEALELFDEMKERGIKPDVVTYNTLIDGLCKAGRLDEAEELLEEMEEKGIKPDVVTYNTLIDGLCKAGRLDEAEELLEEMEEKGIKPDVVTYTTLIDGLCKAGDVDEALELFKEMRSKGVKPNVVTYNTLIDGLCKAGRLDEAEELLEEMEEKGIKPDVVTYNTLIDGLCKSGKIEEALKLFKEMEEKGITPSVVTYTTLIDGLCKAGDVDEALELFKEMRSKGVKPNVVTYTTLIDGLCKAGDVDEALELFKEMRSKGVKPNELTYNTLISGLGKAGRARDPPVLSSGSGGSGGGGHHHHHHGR
Nature of the series: ELONA; RPB-ELISA. As to conditions: tags: N-term luciferase, C-term 6xHis; label: 5'-biotin. (In general: In an ELISA, binding on a coated surface is turned into a signal by an enzyme label.)

For a further series, the target named is T2, v3.1_PPR9 (Artificial Sequence).
T2 chain: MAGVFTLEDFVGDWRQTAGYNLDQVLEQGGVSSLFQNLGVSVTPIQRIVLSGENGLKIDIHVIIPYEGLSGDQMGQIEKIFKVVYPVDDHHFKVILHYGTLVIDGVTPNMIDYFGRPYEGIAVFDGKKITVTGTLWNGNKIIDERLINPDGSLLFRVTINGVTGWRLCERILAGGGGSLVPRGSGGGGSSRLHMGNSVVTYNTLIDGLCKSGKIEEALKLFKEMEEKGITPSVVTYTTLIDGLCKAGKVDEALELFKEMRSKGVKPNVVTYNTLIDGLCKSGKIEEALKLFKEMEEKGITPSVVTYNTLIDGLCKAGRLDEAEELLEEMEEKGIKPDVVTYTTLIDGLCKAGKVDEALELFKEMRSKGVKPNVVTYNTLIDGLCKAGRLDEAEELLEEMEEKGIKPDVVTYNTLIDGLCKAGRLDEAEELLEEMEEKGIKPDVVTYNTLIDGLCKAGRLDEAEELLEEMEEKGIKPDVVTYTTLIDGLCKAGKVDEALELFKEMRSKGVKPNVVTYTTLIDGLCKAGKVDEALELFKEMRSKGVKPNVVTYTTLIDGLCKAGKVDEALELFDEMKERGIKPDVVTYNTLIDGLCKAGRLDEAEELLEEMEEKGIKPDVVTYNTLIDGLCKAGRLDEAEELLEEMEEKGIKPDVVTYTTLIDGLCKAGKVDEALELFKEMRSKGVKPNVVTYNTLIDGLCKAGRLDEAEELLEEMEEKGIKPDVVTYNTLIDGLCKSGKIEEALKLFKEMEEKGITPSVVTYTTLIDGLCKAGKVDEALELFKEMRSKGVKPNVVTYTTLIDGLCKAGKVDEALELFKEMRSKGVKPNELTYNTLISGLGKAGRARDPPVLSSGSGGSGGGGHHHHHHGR
Nature of the series: ELONA; RPB-ELISA. Conditions: tags: luciferase fusion; label: 5'-biotin.

In another series the target is T3, NL_v2_PPR7 (Artificial Sequence).
T3 chain: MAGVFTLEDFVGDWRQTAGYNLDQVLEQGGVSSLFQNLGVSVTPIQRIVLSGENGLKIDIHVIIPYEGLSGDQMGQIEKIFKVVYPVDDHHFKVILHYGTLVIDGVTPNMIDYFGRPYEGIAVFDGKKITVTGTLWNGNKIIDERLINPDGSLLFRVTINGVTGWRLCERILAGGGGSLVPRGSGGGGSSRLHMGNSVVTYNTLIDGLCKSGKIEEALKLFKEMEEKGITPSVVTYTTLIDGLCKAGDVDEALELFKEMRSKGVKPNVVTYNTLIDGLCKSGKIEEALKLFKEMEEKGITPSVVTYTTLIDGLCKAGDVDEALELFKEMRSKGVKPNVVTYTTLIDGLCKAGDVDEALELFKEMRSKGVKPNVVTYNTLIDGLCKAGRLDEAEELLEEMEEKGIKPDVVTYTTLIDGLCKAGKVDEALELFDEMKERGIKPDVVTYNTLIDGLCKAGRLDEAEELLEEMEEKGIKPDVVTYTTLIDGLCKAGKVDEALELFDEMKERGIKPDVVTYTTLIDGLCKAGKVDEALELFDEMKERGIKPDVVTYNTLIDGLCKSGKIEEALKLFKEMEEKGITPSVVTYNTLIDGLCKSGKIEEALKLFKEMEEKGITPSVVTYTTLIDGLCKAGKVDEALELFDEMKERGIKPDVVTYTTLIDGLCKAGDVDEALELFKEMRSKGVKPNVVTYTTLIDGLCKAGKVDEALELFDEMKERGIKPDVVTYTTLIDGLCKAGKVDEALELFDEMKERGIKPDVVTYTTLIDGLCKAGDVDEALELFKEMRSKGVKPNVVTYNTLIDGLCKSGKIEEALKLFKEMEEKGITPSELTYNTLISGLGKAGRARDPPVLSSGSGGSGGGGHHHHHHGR
The series is described as follows: ELONA; RPB-ELISA. As to conditions: tags: N-term luciferase, C-term 6xHis; label: 5'-biotin.

The target of a further series is T4, v3.1_PPR7 (Artificial Sequence).
T4 chain: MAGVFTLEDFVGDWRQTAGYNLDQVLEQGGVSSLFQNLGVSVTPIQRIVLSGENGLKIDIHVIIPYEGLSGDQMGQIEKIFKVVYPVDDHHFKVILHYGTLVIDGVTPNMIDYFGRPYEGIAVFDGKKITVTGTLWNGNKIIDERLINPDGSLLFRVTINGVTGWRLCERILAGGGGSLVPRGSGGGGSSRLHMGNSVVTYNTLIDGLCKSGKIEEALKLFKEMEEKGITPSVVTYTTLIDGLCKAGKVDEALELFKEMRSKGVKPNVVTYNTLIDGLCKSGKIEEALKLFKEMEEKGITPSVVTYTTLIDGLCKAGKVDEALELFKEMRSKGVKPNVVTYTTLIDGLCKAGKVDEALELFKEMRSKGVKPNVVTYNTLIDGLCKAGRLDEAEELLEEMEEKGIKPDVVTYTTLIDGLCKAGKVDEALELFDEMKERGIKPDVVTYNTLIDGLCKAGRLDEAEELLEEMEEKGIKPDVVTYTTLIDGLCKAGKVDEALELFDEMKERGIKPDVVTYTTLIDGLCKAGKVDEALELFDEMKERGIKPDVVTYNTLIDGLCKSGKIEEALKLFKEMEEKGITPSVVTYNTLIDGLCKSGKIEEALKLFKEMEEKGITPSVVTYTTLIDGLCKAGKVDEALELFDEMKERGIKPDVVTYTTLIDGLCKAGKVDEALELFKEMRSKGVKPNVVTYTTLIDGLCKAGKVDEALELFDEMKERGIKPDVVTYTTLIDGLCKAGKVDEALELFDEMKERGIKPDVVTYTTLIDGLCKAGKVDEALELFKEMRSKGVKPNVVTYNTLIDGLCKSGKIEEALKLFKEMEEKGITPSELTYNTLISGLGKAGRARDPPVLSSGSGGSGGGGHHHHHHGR
The series is described as follows: ELONA; RPB-ELISA. Conditions: tags: luciferase fusion; label: 5'-biotin.

The target in another series is T5, v3.1_PPR6 (Artificial Sequence).
T5 chain: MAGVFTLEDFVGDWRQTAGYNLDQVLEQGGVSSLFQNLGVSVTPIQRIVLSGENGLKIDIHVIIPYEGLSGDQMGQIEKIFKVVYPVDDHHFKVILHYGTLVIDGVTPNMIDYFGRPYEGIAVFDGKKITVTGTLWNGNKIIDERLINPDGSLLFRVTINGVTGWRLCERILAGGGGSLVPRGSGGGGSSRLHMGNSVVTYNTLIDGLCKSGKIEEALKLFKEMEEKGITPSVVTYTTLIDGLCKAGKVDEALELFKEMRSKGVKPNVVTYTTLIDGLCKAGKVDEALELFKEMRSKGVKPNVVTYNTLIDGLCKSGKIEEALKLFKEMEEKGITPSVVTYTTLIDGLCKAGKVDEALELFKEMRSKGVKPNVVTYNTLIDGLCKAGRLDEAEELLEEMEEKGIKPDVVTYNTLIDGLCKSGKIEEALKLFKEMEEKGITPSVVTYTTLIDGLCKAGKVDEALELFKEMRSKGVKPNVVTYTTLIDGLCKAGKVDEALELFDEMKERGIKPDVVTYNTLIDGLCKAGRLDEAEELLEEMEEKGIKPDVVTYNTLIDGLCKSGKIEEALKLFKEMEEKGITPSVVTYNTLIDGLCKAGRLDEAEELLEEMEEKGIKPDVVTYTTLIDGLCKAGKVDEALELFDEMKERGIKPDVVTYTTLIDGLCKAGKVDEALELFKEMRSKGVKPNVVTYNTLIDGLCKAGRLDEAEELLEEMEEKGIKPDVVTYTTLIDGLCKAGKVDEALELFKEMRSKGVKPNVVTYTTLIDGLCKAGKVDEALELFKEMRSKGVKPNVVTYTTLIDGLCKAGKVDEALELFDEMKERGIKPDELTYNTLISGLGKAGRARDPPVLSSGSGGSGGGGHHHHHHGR
The series is described as follows: ELONA; RPB-ELISA. Conditions: tags: luciferase fusion; label: 5'-biotin.

Regarding GACAUGCCAACAUCAGUCUGAUAAGGACUG [RNA_6], the binding signal (log2 luminescence) in series [1] (off-target, on-target 25.98) was 14.4.

Consider GGCAAAAAGAUCACUGUA [T_5 (in RNA_5)], for which the binding signal in series [2] (RPB-ELISA) worked out at 6e+07 luminescence.

GACAUGCCACAAUGUGGCCGAGGACGACUG [RNA_7]: the binding signal (log2 luminescence) in [3] (off-target cross-binding) was 24.8.

Consider GAAUGAACUCUUCCGGGA [T_1 (in RNA_1)], for which the binding signal (log2 luminescence) amounted to 16.7 in series [4] (off-target, on-target 25.00); 17 in [3] (off-target); 18.1 in [2] (off-target, on-target 25.83). In series [1] (RPB-ELISA), this molecule displayed a binding signal of 6.6e+07 luminescence.

Take CUGAGUCAUAACCAGCCU [T_3 (in RNA_3)]: the binding signal in series [4] (RPB-ELISA) is 3.3e+07 luminescence.

The molecule GAGAGGAAGCCUGAGAGU [T_2 (in RNA_2)] registered a binding signal in [3] (RPB-ELISA) of 5.7e+07 luminescence.

B1: RNA_9 (ssRNA)
RNA: GACAUGCCACUAUUUAAGUUAUCAAGACUG
For B1, the figures for the binding signal with NL_v2_PPR9 and with v3.1_PPR9 were 4.7e+07 luminescence and 2.2e+06 luminescence, respectively.

B2: RNA_7 (ssRNA)
RNA: GACAUGCCACAAUGUGGCCGAGGACGACUG
As for B2, the binding signal is 1.9e+07 luminescence in the series with NL_v2_PPR7 and 3.4e+07 luminescence with v3.1_PPR7.

B3: RNA_6 (ssRNA)
RNA: GACAUGCCAACAUCAGUCUGAUAAGGACUG
As for B3, the binding signal with v3.1_PPR6 is 6.1e+06 luminescence.
